Assay results: US20180094059A1

Target: TRAIL receptors (TRAILR) on tumor cells
Test: flow cytometry, Colo205 cells

scTRAIL3-…, sequence (P50591 other isoform, or with tags, fused parts or gaps): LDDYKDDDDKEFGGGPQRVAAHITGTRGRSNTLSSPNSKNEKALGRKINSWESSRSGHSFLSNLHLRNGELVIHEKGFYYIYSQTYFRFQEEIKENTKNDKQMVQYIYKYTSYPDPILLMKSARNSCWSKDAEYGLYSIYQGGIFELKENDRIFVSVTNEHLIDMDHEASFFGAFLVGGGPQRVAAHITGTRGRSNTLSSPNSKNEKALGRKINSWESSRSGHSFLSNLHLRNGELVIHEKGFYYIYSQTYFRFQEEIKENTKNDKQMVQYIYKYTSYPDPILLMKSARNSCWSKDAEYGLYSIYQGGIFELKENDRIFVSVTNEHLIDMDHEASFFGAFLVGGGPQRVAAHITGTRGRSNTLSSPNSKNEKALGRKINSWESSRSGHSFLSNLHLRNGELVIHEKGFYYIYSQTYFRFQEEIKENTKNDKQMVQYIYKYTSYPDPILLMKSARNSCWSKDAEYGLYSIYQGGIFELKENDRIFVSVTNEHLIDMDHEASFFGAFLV

scTRAIL3-… (from UniProt P50591 118-281) (ligand)
EC50: 5.67 nM
